Results on 9 molecules are retold here after US20250011456A1, “ANTIBODIES AGAINST CD14 AND USES THEREOF” (Villanelle Life Science Inc, priority 2023, published 2025).

For orientation: Kd means the concentration at which binding is half-saturated.

The target of this test is T1, recombinant human CD14 (B294801, histidine tagged) (Homo sapiens, UniProt P08571).
T1 construct: His; purchased Shanghai BaiYing Biotechnology Co., Ltd B294801 (Batch number 20200518A22)
T1 sequence (P08571 20-345): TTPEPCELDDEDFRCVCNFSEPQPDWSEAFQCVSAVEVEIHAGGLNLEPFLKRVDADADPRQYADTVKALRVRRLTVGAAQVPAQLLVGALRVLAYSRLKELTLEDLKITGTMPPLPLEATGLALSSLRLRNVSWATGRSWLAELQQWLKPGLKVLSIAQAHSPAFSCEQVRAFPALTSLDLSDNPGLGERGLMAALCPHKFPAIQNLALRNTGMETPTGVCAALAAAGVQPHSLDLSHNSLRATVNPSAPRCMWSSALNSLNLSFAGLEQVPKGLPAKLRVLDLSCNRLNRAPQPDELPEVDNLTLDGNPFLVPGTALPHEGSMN
Description: Biacore 8K kinetic and affinity test of humanized antibodies (Example 8). The class given is binding. Particulars: for Kd / koff (1:1 binding) / kon (1:1 binding): Biacore 8K, analyte B294801 0.78125-25 nM, capture 1 μg/mL; for Kd: KD=koff/kon; for Change Factor (ratio of KD of the humanized to mouse antibody): relative to mouse antibody D6DD3D001. As for the experimental part: Experimental reagents and consumables included Protein A chip (Cytiva, 29127556). Main instruments and equipment included Biacore 8K (Cytiva), shaker (Taicang Huamei), ELISA system (Molecular Devices), centrifuge (Baiyang), ultrapure water system (Millipore), and thermostatic incubator (BLUE PARD).
The antigen used for the binding affinity measurements is B294801. This antigen is a recombinant human CD14 antigen that is histidine tagged and has a molecular weight of 36 kDa. B294801 was purchased from Shanghai BaiYing Biotechnology Co., Ltd (name: Recombinant Human CD14/His Protein; Batch number 20200518A22). D6DD3D001 is a mouse antibody, and D6DD3D002-D6DD3D0016 are humanized antibodies. The antibodies are recombinant, human (hFc Tag). Selected parameters of the experimental samples are shown in Table 8-1, with MW referring to molecular weight in kiloDaltons (kDa).
The Biacore 8K platform was used to test the kinetic and affinity properties of the antibody. The operation was carried out according to the system instructions and indications.
The equilibrium dissociation constant (KD) reflects the affinity of the antibody to the target, with a smaller value indicating a stronger affinity. KD (in units of molarity) is determined by the ratio of the dissociation rate constant (koff) and the association rate constant (kon), that is, KD=Koff/kon.
15 humanized antibodies (numbered D6DD3D002-D6DD3D0016) and 1 mouse antibody (number D6DD3D001) were tested. For the experiments, the analyte solution comprises the B294801 antigen with an analyte concentration of 0.78125 nM, 1.5625 nM, 3.125 nM, 6.25 nM, 12.5 nM, and 25 nM. The capture concentration was 1 μg/mL. In Table 8-3, the change factor is the ratio of the equilibrium dissociation constant KD of the humanized to mouse antibody, and reflects the change in affinity after humanization.
(In SPR one partner is held on a chip, and binding of the other changes the refractive index at the surface.)

B1: D6DD3D009: humanized anti-CD14 antibody; VH SEQ ID NO: 33, VL SEQ ID NO: 35 (antibody, V domains shown)
VH: QLQLQESGPGLVKPSETLSLTCTVSGGSISSDSAWNWIRQPPGKGLEWIGYISYSGSTSYNPSLKSRVTISRDTSKNQFSLKLSSVTAADTAVYYCVRGLRFAYWGQGTLVTVSS
VL: DIVLTQSPDSLAVSLGERATINCRASESVDSYVNSFLHWYQQKPGQPPKLLIYRASNLQSGVPDRFSGSGSRTDFTLTISSLQAEDVAVYYCQQSNEDPYTFGQGTKLEIK
For B1, the Kd came to 1.89 nM, the “koff (1:1 binding)” value was 0.00379 s⁻¹, the “kon (1:1 binding)” value was found to be 2.01e+06 M⁻¹ s⁻¹ and the “Change Factor (ratio of KD of the humanized to mouse antibody)” value is 3.90.

B2: D6DD3D003: humanized anti-CD14 antibody; VH SEQ ID NO: 9, VL SEQ ID NO: 11 (antibody, V domains shown)
VH: QVQLQESGPGLVKPSETLSLTCTVSGGSISSDSAWNWIRQPPGKGLEWIGYISYSGSTSYNPSLKSRVTISRDTSKNQFSLKLSSVTAADTAVYYCVRGLRFAYWGQGTLVTVSS
VL: EIVLTQSPATLSLSPGERATLSCRASESVDSYVNSFLHWYQQKPGQAPRLLIYRASNLQSGIPARFSGSGSRTDFTLTISSLEPEDVAVYYCQQSNEDPYTFGQGTKLEIK
B2: the dissociation constant Kd was 1.62 nM, the “koff (1:1 binding)” value came out at 0.00295 s⁻¹, the “kon (1:1 binding)” value is 1.82e+06 M⁻¹ s⁻¹ and the “Change Factor (ratio of KD of the humanized to mouse antibody)” value is recorded as 3.34.

B3: D6DD3D013: humanized anti-CD14 antibody; VH SEQ ID NO: 49, VL SEQ ID NO: 51 (antibody, V domains shown)
VH: QVQLQESGPGLVKPSETLSLTCTVSGGSISSDSAWNWIRQPPGKGLEWIGYISYSGSTSYNPSLKSRVTISRDTSKNQFSLKLSSVTAADTAVYYCVRGLRFAYWGQGTLVTVSS
VL: DIQLTQSPSSLSASVGDRVTITCRASESVDSYVNSFLHWYQQKPGKAPKLLIYRASNLQSGVPSRFSGSGSRTDFTLTISSLQPEDVATYYCQQSNEDPYTFGQGTKLEIK
In the case of B3, the Kd worked out at 1.61 nM, the “koff (1:1 binding)” value is 0.00282 s⁻¹, the “kon (1:1 binding)” value worked out at 1.76e+06 M⁻¹ s⁻¹ and the “Change Factor (ratio of KD of the humanized to mouse antibody)” value is listed as 3.32.

B4: D6DD3D002: humanized anti-CD14 antibody; VH SEQ ID NO: 5, VL SEQ ID NO: 7 (antibody, V domains shown)
VH: QVQLQESGPGLVKPSQTLSLTCTVSGGSISSDSAWNWIRQHPGKGLEWIGYISYSGSTSYNPSLKSRVTISRDTSKNQFSLKLSSVTAADTAVYYCVRGLRFAYWGQGTLVTVSS
VL: EIVLTQSPATLSLSPGERATLSCRASESVDSYVNSFLHWYQQKPGQAPRLLIYRASNLQSGIPARFSGSGSRTDFTLTISSLEPEDVAVYYCQQSNEDPYTFGQGTKLEIK
As for B4, the “koff (1:1 binding)” value turned out to be 0.00292 s⁻¹ and the “kon (1:1 binding)” value was determined as 1.69e+06 M⁻¹ s⁻¹.

B5: D6DD3D011: humanized anti-CD14 antibody; VH SEQ ID NO: 41, VL SEQ ID NO: 43 (antibody, V domains shown)
VH: QVQLQESGPGLVKPSQTLSLTCTVSGYSITSDSAWNWIRQPPGKGLEWIGYISYSGSTSYNPSLKSRVTISRDTSKNQFSLKLSSVTAADTAVYYCVRGLRFAYWGQGTLVTVSS
VL: DIVLTQSPDSLAVSLGERATINCRASESVDSYVNSFLHWYQQKPGQPPKLLIYRASNLQSGVPDRFSGSGSRTDFTLTISSLQAEDVAVYYCQQSNEDPYTFGQGTKLEIK
As to B5, the Kd amounted to 0.639 nM, the “koff (1:1 binding)” value came out at 0.00109 s⁻¹, the “kon (1:1 binding)” value came out at 1.71e+06 M⁻¹ s⁻¹ and the “Change Factor (ratio of KD of the humanized to mouse antibody)” value is 1.32.

B6: D6DD3D016: humanized anti-CD14 antibody; VH SEQ ID NO: 61, VL SEQ ID NO: 63 (antibody, V domains shown)
VH: QVQLQESGPGLVKPSQTLSLTCTVSGYSITSDSAWNWIRQPPGKGLEWIGYISYSGSTSYNPSLKSRVTISRDTSKNQFSLKLSSVTAADTAVYYCVRGLRFAYWGQGTLVTVSS
VL: DIQLTQSPSSLSASVGDRVTITCRASESVDSYVNSFLHWYQQKPGKAPKLLIYRASNLQSGVPSRFSGSGSRTDFTLTISSLQPEDVATYYCQQSNEDPYTFGQGTKLEIK
For B6, the Kd stood at 0.672 nM, the “koff (1:1 binding)” value worked out at 0.000904 s⁻¹, the “kon (1:1 binding)” value turned out to be 1.35e+06 M⁻¹ s⁻¹ and the “Change Factor (ratio of KD of the humanized to mouse antibody)” value came to 1.39.

B7: D6DD3D012: humanized anti-CD14 antibody; VH SEQ ID NO: 45, VL SEQ ID NO: 47 (antibody, V domains shown)
VH: QVQLQESGPGLVKPSQTLSLTCTVSGGSISSDSAWNWIRQHPGKGLEWIGYISYSGSTSYNPSLKSRVTISRDTSKNQFSLKLSSVTAADTAVYYCVRGLRFAYWGQGTLVTVSS
VL: DIQLTQSPSSLSASVGDRVTITCRASESVDSYVNSFLHWYQQKPGKAPKLLIYRASNLQSGVPSRFSGSGSRTDFTLTISSLQPEDVATYYCQQSNEDPYTFGQGTKLEIK
With B7, the “koff (1:1 binding)” value came to 0.00293 s⁻¹ and the “kon (1:1 binding)” value was 1.64e+06 M⁻¹ s⁻¹.

B8: D6DD3D014: humanized anti-CD14 antibody; VH SEQ ID NO: 53, VL SEQ ID NO: 55 (antibody, V domains shown)
VH: QLQLQESGPGLVKPSETLSLTCTVSGGSISSDSAWNWIRQPPGKGLEWIGYISYSGSTSYNPSLKSRVTISRDTSKNQFSLKLSSVTAADTAVYYCVRGLRFAYWGQGTLVTVSS
VL: DIQLTQSPSSLSASVGDRVTITCRASESVDSYVNSFLHWYQQKPGKAPKLLIYRASNLQSGVPSRFSGSGSRTDFTLTISSLQPEDVATYYCQQSNEDPYTFGQGTKLEIK
B8: the Kd is 1.8 nM, the “koff (1:1 binding)” value turned out to be 0.00318 s⁻¹, the “kon (1:1 binding)” value worked out at 1.77e+06 M⁻¹ s⁻¹ and the “Change Factor (ratio of KD of the humanized to mouse antibody)” value was 3.71.

B9: D6DD3D004: humanized anti-CD14 antibody; VH SEQ ID NO: 13, VL SEQ ID NO: 15 (antibody, V domains shown)
VH: QLQLQESGPGLVKPSETLSLTCTVSGGSISSDSAWNWIRQPPGKGLEWIGYISYSGSTSYNPSLKSRVTISRDTSKNQFSLKLSSVTAADTAVYYCVRGLRFAYWGQGTLVTVSS
VL: EIVLTQSPATLSLSPGERATLSCRASESVDSYVNSFLHWYQQKPGQAPRLLIYRASNLQSGIPARFSGSGSRTDFTLTISSLEPEDVAVYYCQQSNEDPYTFGQGTKLEIK
As to B9, the Kd was 1.99 nM, the “koff (1:1 binding)” value turned out to be 0.00326 s⁻¹, the “kon (1:1 binding)” value came to 1.64e+06 M⁻¹ s⁻¹ and the “Change Factor (ratio of KD of the humanized to mouse antibody)” value worked out at 4.10.
